Residue numbers refer to the chain shown, from its start. Read-outs that look alike come from different tables or passages of the source.

The target in assay [1] is T1, PscF from strain PAO1 (Pseudomonas aeruginosa PAO1, UniProt P95434).
The target of assay [2] is T1, PscF from strain PAO1. Description: ELISA; competition ELISA; serial dilutions of competitor mAbs on antigen-coated wells for 30 min, then biotinylated mAbs at their EC70; detected with AP-conjugated streptavidin. Particulars: both partners purified. (In general: An ELISA detects its analyte on a solid surface through an enzyme-linked reagent.)

T1 sequence (P95434 whole entry): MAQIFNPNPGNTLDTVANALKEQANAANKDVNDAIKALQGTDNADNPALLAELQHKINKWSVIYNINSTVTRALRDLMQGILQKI

B1: P1D7 (antibody, V domains shown)
VH: EVQLLESGGGLVQPGGSLRLSCAASGFTFTSYAMSWVRQAPGKGLEWVSALSNSGDSTYYADSVKGRFTISRDNSKNTLYLQMHSLRVEDTAVYYCAKDREGDYGDYVFDYWGQGTLVTVSS
VL: SYVLTQPPSVSVAPGQTARIPCGGNNIGRKSVHWYQQKPGQAPVLVVYDDSDRPSGIPERFSGSNSGNTATLTISRVEAGDEADYYCQVWDSSDDLVVFGGGTTLTVL
On to B1, for which the binding result in assay [1] is “binds”.

B2: P1B7 (antibody, V domains shown)
VH: EVQLLESGGGLVQPGGSLRLSCAASGFTFKSYAMSWVRQAPGKGLEWVSAISGSGGSKYYADSVKGRFTISRDDSKNTLYLQMNSLRVEDTAVYYCAKPLLDSVYCLESWGQGTLVTVSS
VL: DIQMTQSPSSLSASVGDRVTITCRASQDISNYLSWYQQRPGKAPKSLIYAAFRLQSGVPSKFSGSGSGTDFTLTISSLQPEDFATYYCQQYYTYPPTFGQGTKLEIK
In the case of B2, in assay [1], the binding result is given as “binds”.

B3: P5D5 (antibody, V domains shown)
VH: B2 VH with K30N, S31N, N77S, T78R, V93L, A97T, D102E, C106Y
VL: B2 VL with D28G, Y32H, S34A, Y36F, R39K, F52S, K61R, T85S, T93S, T97A
As to B3, the binding result in assay [1] was “binds”.

B4: P3G7 (antibody, V domains shown)
VH: EVQLVESGGGLVQPGRSLTLSCAVTGFIVRDYHIDWVRQAPGKGLEWVGRARNKASRYRVVYAASLKDRFTIIRDDSKNSIYLRMSSLKTEDAAMYFCVRVGHYDTQGYALDDYDVWGQGTAVTVSS
VL: QSVLTQSPSVSAAPGQRVTIHCFGSSSTIGSNQLSWYQQVPGTAPKLLIYDSDKRPSGIPDRFSASKSGTSGTLDISGLQSGDEADYYCETWDDTLKAVVFGGGTKLTVL
B4: in assay [1], the binding result was “binds”.

B5: P5G10 (human anti-PscF monoclonal antibody) (antibody, V domains shown)
VH: VQLQQWGAGLLKPSETLSLTCAVYGGSFSDYYWTWIRQAPGKGLEWIGENRHRGTTNYNPSLKGRVTISVDTSKNQFTLKVTSVTAADTAVYFCARQRGSSGGAPSGLDVWGQGTTVTVSS
VL: QSVLTQPPSASGTPGQRVTISCSGASSNIGTNYVFWYQQFPGTAPKLLIYRNGHRPSGVPDRFSGSKSGASASLAISGLRSDDEADYYCATWDDSLSSQVFGGGTKLTVL
notes: also called P5G10 mAb
In the case of B5, the binding result in assay [2] was “binds”.

B6: P1D5 (antibody, V domains shown)
VH: QVQLHESGPGLVEPSQTLTLTCTVSGGSTDSDGVYWTWIRQPAGKGLEWIGRIDNRGTYSYNPSLRSRITISEEPSQNQFSLRVRSLTAADAGVYYCAREVRRLQGRRYYYYGTDVWGPGTTVTVSS
VL: DIVMTQSPLSLSVTLGESASISCRSSQSLLHTNAYNYLDWYLQRPGQSPQLLIYLSSVRASGVPDRFSGRGSGTDFTLKISRVEAEDVGIYFCMQALEMPFTFGPGTKVDIK
Take B6: the binding result in assay [1] is given as “binds”.

B7: P3G2 (antibody, V domains shown)
VH: QVQLQESGPGLVKPSETLSLTCSVSGGSVASGDFYWSWVRQPAGTGLEWIGRVSTSGSTNCNPSLKSRVTISIDTSKNEFSLRLPSVTAADTAVYYCARYRPGSGGLGVYYDYWGQGILVTVSS
VL: QSALTQPPSASGSPGQSVTISCTGASSDIGGYNYVSWYQQHPGRAPRLMIYEVHNRPSGVPDRFSGSKSGNTASLTVSGLQAEDEADYYCMSYAGGNILLFGGGTKLTVL
Take B7: the binding result in assay [1] is recorded as “binds”.

Values taken from PMC12912723 (eLife, 2026).
